Assay results: US20150246136A1 (Bayer, published 2015)

T1: C4.4a (Homo sapiens, UniProt O95274 31-326)
T1 sequence (looked up): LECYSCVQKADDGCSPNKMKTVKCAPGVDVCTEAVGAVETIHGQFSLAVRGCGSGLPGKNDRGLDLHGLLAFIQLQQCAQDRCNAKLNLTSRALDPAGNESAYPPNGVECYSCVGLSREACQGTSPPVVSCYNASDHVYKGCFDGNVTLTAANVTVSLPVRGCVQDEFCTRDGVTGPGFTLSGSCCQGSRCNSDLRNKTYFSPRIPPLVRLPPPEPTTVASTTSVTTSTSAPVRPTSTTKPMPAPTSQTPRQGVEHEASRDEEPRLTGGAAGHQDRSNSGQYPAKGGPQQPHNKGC


Experiments:
Assay in all cases: cell-based or functional assay
Carboanhydrase IX [1] = target: T2, Carboanhydrase IX (Homo sapiens, UniProt Q16790 38-459)
Carboanhydrase IX [2] = target: T2, Carboanhydrase IX; remark: listed apart in the source
C4.4a = target: T1, C4.4a

| Binder | EC50 (nM) HT29 (Carboanhydrase IX [1]) | MIAPaCa 2/CA9+ IC50 (Carboanhydrase IX [2]) | EC50 (nM) SNU-5 (Carboanhydrase IX [1]) | IC50 (nM) A549: C4.4a (C4.4a) |
| --- | --- | --- | --- | --- |
| Example 300 (antibody, human IgG1, kappa, V domains shown, linker-toxophore on cysteine S) VH: QVELVESGGGLVQPGGSLRLSCAASGFTFSSYGMSWVRQAPGKGLEWVSGISSLGSTTYYADSVKGRFTISRDNSKNTLYLQMNSLRAEDTAVYYCARTGSPGTFMHGDHWGQGTLVTVSS VL: DIQMTQSPSSLSASVGDRVTITCRASQDINNYLSWYQQKPGKAPKLLIYGASNLQSGVPSRFSGSGSGTDFTLTISSLQPEDFAVYYCQQYYGRPTTFGQGTKVEIKR | 5 nM | 0.3 nM |  |  |
| Example 301 (antibody, human IgG1, kappa, V domains shown, linker-toxophore on cysteine S) VH: QVELVESGGGLVQPGGSLRLSCAASGFTFSSYGMSWVRQAPGKGLEWVSGISSLGSTTYYADSVKGRFTISRDNSKNTLYLQMNSLRAEDTAVYYCARTGSPGTFMHGDHWGQGTLVTVSS VL: DIQMTQSPSSLSASVGDRVTITCRASQDINNYLSWYQQKPGKAPKLLIYGASNLQSGVPSRFSGSGSGTDFTLTISSLQPEDFAVYYCQQYYGRPTTFGQGTKVEIKR | > 30 nM | 22 nM |  |  |
| Example 211 (antibody, human IgG1, lambda, V domains shown, linker-toxophore on cysteine S) VH: EVQLLESGGGLVQPGGSLRLSCAASGFTFSSAWMSWVRQAPGKGLEWVSYISSSGSTIYYADSVKGRFTISRDNSKNTLYLQMNSLRAEDTAVYYCAREGLWAFDYWGQGTLVTVSS VL: QSVLTQPPSVSGAPGQRVTISCTGSSSNIGAGYVVHWYQQLPGTAPKLLIYDNNKRPSGVPDRFSGSKSGTSASLAISGLRSEDEADYYCAAYDDSLSGPVFGGGTKLTVLG |  |  |  | 0.076 nM |
| Example 215 (antibody, human IgG1, lambda, V domains shown, linker-toxophore on cysteine S) VH: EVQLLESGGGLVQPGGSLRLSCAASGFTFSSAWMSWVRQAPGKGLEWVSYISSSGSTIYYADSVKGRFTISRDNSKNTLYLQMNSLRAEDTAVYYCAREGLWAFDYWGQGTLVTVSS VL: QSVLTQPPSVSGAPGQRVTISCTGSSSNIGAGYVVHWYQQLPGTAPKLLIYDNNKRPSGVPDRFSGSKSGTSASLAISGLRSEDEADYYCAAYDDSLSGPVFGGGTKLTVLG |  |  |  | 0.046 nM |
| Example 214 (antibody, human IgG1, lambda, V domains shown, linker-toxophore on cysteine S) VH: EVQLLESGGGLVQPGGSLRLSCAASGFTFSSAWMSWVRQAPGKGLEWVSYISSSGSTIYYADSVKGRFTISRDNSKNTLYLQMNSLRAEDTAVYYCAREGLWAFDYWGQGTLVTVSS VL: QSVLTQPPSVSGAPGQRVTISCTGSSSNIGAGYVVHWYQQLPGTAPKLLIYDNNKRPSGVPDRFSGSKSGTSASLAISGLRSEDEADYYCAAYDDSLSGPVFGGGTKLTVLG |  |  |  | 0.04 nM |
| Example 217 (antibody, human IgG1, lambda, V domains shown, linker-toxophore on cysteine S) VH: EVQLLESGGGLVQPGGSLRLSCAASGFTFSDYQMTWIRQTPGKGLEWVSGISWNGGSTHYADSVKGRFTISRDNSKNTLYLQMNSLRAEDTAVYYCAKGDYLVYSSYYFKSWGQGTLVTVSS VL: not shown |  |  |  | 0.053 nM |

Now from value to binder:

| EC50 (nM) HT29 (Carboanhydrase IX [1]) | MIAPaCa 2/CA9+ IC50 (Carboanhydrase IX [2]) | EC50 (nM) SNU-5 (Carboanhydrase IX [1]) | IC50 (nM) A549: C4.4a (C4.4a) | Binder |
| --- | --- | --- | --- | --- |
| 66 nM | 21 nM | 33 nM |  | Example 306 (antibody, human IgG1, kappa, V domains shown, linker-toxophore on lysine NH) VH: QVELVESGGGLVQPGGSLRLSCAASGFTFSSYGMSWVRQAPGKGLEWVSGISSLGSTTYYADSVKGRFTISRDNSKNTLYLQMNSLRAEDTAVYYCARTGSPGTFMHGDHWGQGTLVTVSS VL: DIQMTQSPSSLSASVGDRVTITCRASQDINNYLSWYQQKPGKAPKLLIYGASNLQSGVPSRFSGSGSGTDFTLTISSLQPEDFAVYYCQQYYGRPTTFGQGTKVEIKR |
| 2.2 nM | 0.009 nM | 3.3 nM |  | Example 303 (antibody, human IgG1, kappa, V domains shown, linker-toxophore on lysine NH) VH: QVELVESGGGLVQPGGSLRLSCAASGFTFSSYGMSWVRQAPGKGLEWVSGISSLGSTTYYADSVKGRFTISRDNSKNTLYLQMNSLRAEDTAVYYCARTGSPGTFMHGDHWGQGTLVTVSS VL: DIQMTQSPSSLSASVGDRVTITCRASQDINNYLSWYQQKPGKAPKLLIYGASNLQSGVPSRFSGSGSGTDFTLTISSLQPEDFAVYYCQQYYGRPTTFGQGTKVEIKR |
| 0.05 nM | 0.019 nM | 0.6 nM |  | Example 304 (antibody, human IgG1, kappa, V domains shown, linker-toxophore on cysteine S) VH: QVELVESGGGLVQPGGSLRLSCAASGFTFSSYGMSWVRQAPGKGLEWVSGISSLGSTTYYADSVKGRFTISRDNSKNTLYLQMNSLRAEDTAVYYCARTGSPGTFMHGDHWGQGTLVTVSS VL: DIQMTQSPSSLSASVGDRVTITCRASQDINNYLSWYQQKPGKAPKLLIYGASNLQSGVPSRFSGSGSGTDFTLTISSLQPEDFAVYYCQQYYGRPTTFGQGTKVEIKR |
| > 30 nM | 3.9 nM |  |  | Example 302 (antibody, human IgG1, kappa, V domains shown, linker-toxophore on cysteine S) VH: QVELVESGGGLVQPGGSLRLSCAASGFTFSSYGMSWVRQAPGKGLEWVSGISSLGSTTYYADSVKGRFTISRDNSKNTLYLQMNSLRAEDTAVYYCARTGSPGTFMHGDHWGQGTLVTVSS VL: DIQMTQSPSSLSASVGDRVTITCRASQDINNYLSWYQQKPGKAPKLLIYGASNLQSGVPSRFSGSGSGTDFTLTISSLQPEDFAVYYCQQYYGRPTTFGQGTKVEIKR |
| 0.9 nM | 2.6 nM | 2.2 nM |  | Example 305 (antibody, human IgG1, kappa, V domains shown, linker-toxophore on cysteine S) VH: QVELVESGGGLVQPGGSLRLSCAASGFTFSSYGMSWVRQAPGKGLEWVSGISSLGSTTYYADSVKGRFTISRDNSKNTLYLQMNSLRAEDTAVYYCARTGSPGTFMHGDHWGQGTLVTVSS VL: DIQMTQSPSSLSASVGDRVTITCRASQDINNYLSWYQQKPGKAPKLLIYGASNLQSGVPSRFSGSGSGTDFTLTISSLQPEDFAVYYCQQYYGRPTTFGQGTKVEIKR |
